Data as given in patent US20250084179A1 (Xencor, published 2025).

T1: Cyno TROP2 (Macaca fascicularis, UniProt A0A2K5UE71)
T1 construct: Construct used in the measurement is not described; also called cynomolgus TROP2
T1 sequence (antigen): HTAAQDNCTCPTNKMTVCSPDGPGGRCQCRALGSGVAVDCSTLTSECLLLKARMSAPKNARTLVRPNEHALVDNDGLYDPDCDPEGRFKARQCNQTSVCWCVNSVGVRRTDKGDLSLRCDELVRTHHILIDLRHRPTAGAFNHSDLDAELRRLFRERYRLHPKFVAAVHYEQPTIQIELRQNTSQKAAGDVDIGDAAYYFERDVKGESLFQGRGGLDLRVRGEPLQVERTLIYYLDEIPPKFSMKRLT

T2: TROP2 (UniProt P09758 27-274, limits assumed)
T2 construct: also called tumor-associated calcium signal transducer 2; TACSTD2
T2 sequence (looked up): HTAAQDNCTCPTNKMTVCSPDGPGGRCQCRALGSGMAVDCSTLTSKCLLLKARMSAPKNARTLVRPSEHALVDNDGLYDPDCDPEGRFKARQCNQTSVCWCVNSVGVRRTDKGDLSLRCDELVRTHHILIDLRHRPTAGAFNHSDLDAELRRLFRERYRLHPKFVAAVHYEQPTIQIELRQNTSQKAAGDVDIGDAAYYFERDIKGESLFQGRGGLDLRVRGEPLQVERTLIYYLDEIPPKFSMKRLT


Legend:
Cyno TROP2 = biological target: T1, Cyno TROP2; test: not stated; bivalent format
TROP2 = biological target: T2, TROP2; test: not stated; bivalent format

| Kd (Cyno TROP2) | koff (Cyno TROP2) | kon (Cyno TROP2) | Kd (TROP2) | koff (TROP2) | kon (TROP2) | Binder |
| --- | --- | --- | --- | --- | --- | --- |
| 2.7 nM | 0.00073 s⁻¹ | 270000 M⁻¹ s⁻¹ | 2 nM | 0.00048 s⁻¹ | 240000 M⁻¹ s⁻¹ | 1F11-1A3.315[Trop2]_H1.1_L1 (antibody, V domains shown) VH: QVQLVQSGAEVKKPGASVKVSCKASGYTLTRYYMHWVRQAPGQGLEWMGIINPGGGSTGYAQKFQGRVTMTRDTSTSTVYMELSSLRSEDTAVYYCARDDVVAADVFDYWGQGTLVTVSS VL: not shown |
| 0.81 nM | 0.00031 s⁻¹ | 390000 M⁻¹ s⁻¹ | 1.5 nM | 0.00032 s⁻¹ | 210000 M⁻¹ s⁻¹ | 1F11-1A3.315[Trop2]_H1.21_L1 (antibody, V domains shown) VH: QVQLVQSGAEVKKPGASVKVSCKASGYTLTRYYMHWVRQAPGQGLEWMGIIEPGGGSTSYAQKFQGRVTMTRDTSTSTVYMELSSLRSEDTAVYYCARDDVVKADVFDYWGQGTLVTVSS VL: not shown |
| 1.5 nM | 0.00047 s⁻¹ | 310000 M⁻¹ s⁻¹ | 1.1 nM | 0.00029 s⁻¹ | 270000 M⁻¹ s⁻¹ | 1F11-1A3.315[Trop2]_H1.16_L1 (antibody, V domains shown) VH: QVQLVQSGAEVKKPGASVKVSCKASGYTLTRYYMHWVRQAPGQGLEWMGIIEPGGGSTGYAQKFQGRVTMTRDTSTSTVYMELSSLRSEDTAVYYCARDDVTAADVFDYWGQGTLVTVSS VL: not shown |
| 2.8 nM | 0.00077 s⁻¹ | 280000 M⁻¹ s⁻¹ | 1.9 nM | 0.00053 s⁻¹ | 280000 M⁻¹ s⁻¹ | 1F11-1A3.315[Trop2]_H1.7_L1 (antibody, V domains shown) VH: QVQLVQSGAEVKKPGASVKVSCKASGYTLTRYYMHWVRQAPGQGLEWMGIINPGGGSTTYAQKFQGRVTMTRDTSTSTVYMELSSLRSEDTAVYYCARDDVVAADVFDYWGQGTLVTVSS VL: not shown |
| 11 nM | 0.0026 s⁻¹ | 230000 M⁻¹ s⁻¹ | 7.2 nM | 0.0012 s⁻¹ | 170000 M⁻¹ s⁻¹ | 1F11-1A3.315[Trop2]_H1.23_L1 (antibody, V domains shown) VH: QVQLVQSGAEVKKPGASVKVSCKASGYTFTRYYVHWVRQAPGQGLEWMGIINPGGGSTGYAQKFQGRVTMTRDTSTSTVYMELSSLRSEDTAVYYCARDDVVAADVFDYWGQGTLVTVSS VL: not shown |
| 3.1 nM | 0.00077 s⁻¹ | 250000 M⁻¹ s⁻¹ | 2.7 nM | 0.0006 s⁻¹ | 230000 M⁻¹ s⁻¹ | 1F11-1A3.315[Trop2]_H1.8_L1 (antibody, V domains shown) VH: QVQLVQSGAEVKKPGASVKVSCKASGYTLTRYYMHWVRQAPGQGLEWMGIINPGGGSTGYAQKFQGRVTMTRDTSTSTVYMELSSLRSEDTAVYYCARDDVTAADVFDYWGQGTLVTVSS VL: not shown |
| 3.7 nM | 0.0013 s⁻¹ | 360000 M⁻¹ s⁻¹ | 2.6 nM | 0.00077 s⁻¹ | 290000 M⁻¹ s⁻¹ | 1F11-1A3.315[Trop2]_H1.14_L1 (antibody, V domains shown) VH: QVQLVQSGAEVKKPGASVKVSCKASGYTFTRYYMHWVRQAPGQGLEWMGIINPGGGSTTYAQKFQGRVTMTRDTSTSTVYMELSSLRSEDTAVYYCARDDVVKADVFDYWGQGTLVTVSS VL: not shown |
| 1.1 nM | 0.00038 s⁻¹ | 360000 M⁻¹ s⁻¹ | 1.3 nM | 0.00033 s⁻¹ | 270000 M⁻¹ s⁻¹ | 1F11-1A3.315[Trop2]_H1.12_L1 (antibody, V domains shown) VH: QVQLVQSGAEVKKPGASVKVSCKASGYTFTRYYMHWVRQAPGQGLEWMGIIEPGGGSTGYAQKFQGRVTMTRDTSTSTVYMELSSLRSEDTAVYYCARDDVVKADVFDYWGQGTLVTVSS VL: not shown |
| 11 nM | 0.0026 s⁻¹ | 250000 M⁻¹ s⁻¹ | 5.7 nM | 0.0013 s⁻¹ | 240000 M⁻¹ s⁻¹ | 1F11-1A3.315[Trop2]_H1.24_L1 (antibody, V domains shown) VH: QVQLVQSGAEVKKPGASVKVSCKASGYTFTRYYMHWVRQAPGQGLEWMGIINPGGGSTDYAQKFQGRVTMTRDTSTSTVYMELSSLRSEDTAVYYCARDDVVAADVFDYWGQGTLVTVSS VL: not shown |
| 1.5 nM | 0.00042 s⁻¹ | 290000 M⁻¹ s⁻¹ | 0.77 nM | 0.00025 s⁻¹ | 320000 M⁻¹ s⁻¹ | 1F11-1A3.315[Trop2]_H1.6_L1 (antibody, V domains shown) VH: QVQLVQSGAEVKKPGASVKVSCKASGYTLTRYYMHWVRQAPGQGLEWMGIIEPGGGSTGYAQKFQGRVTMTRDTSTSTVYMELSSLRSEDTAVYYCARDDVVAADVFDYWGQGTLVTVSS VL: not shown |
| 0.93 nM | 0.00034 s⁻¹ | 370000 M⁻¹ s⁻¹ | 0.66 nM | 0.0002 s⁻¹ | 320000 M⁻¹ s⁻¹ | 1F11-1A3.315[Trop2]_H1.18_L1 (antibody, V domains shown) VH: QVQLVQSGAEVKKPGASVKVSCKASGYTLTRYYMHWVRQAPGQGLEWMGIIEPGGGSTTYAQKFQGRVTMTRDTSTSTVYMELSSLRSEDTAVYYCARDDVTAADVFDYWGQGTLVTVSS VL: not shown |
| 2.8 nM | 0.00084 s⁻¹ | 300000 M⁻¹ s⁻¹ | 1.7 nM | 0.00051 s⁻¹ | 330000 M⁻¹ s⁻¹ | 1F11-1A3.315[Trop2]_H1.13_L1 (antibody, V domains shown) VH: QVQLVQSGAEVKKPGASVKVSCKASGYTFTRYYMHWVRQAPGQGLEWMGIINPGGGSTTYAQKFQGRVTMTRDTSTSTVYMELSSLRSEDTAVYYCARDDVTAADVFDYWGQGTLVTVSS VL: not shown |
| 4.5 nM | 0.0014 s⁻¹ | 320000 M⁻¹ s⁻¹ | 3.4 nM | 0.00081 s⁻¹ | 240000 M⁻¹ s⁻¹ | 1F11-1A3.315[Trop2]_H1.5_L1 (antibody, V domains shown) VH: QVQLVQSGAEVKKPGASVKVSCKASGYTFTRYYMHWVRQAPGQGLEWMGIINPGGGSTGYAQKFQGRVTMTRDTSTSTVYMELSSLRSEDTAVYYCARDDVVKADVFDYWGQGTLVTVSS VL: not shown |
| 2.5 nM | 0.00067 s⁻¹ | 270000 M⁻¹ s⁻¹ | 2 nM | 0.00047 s⁻¹ | 250000 M⁻¹ s⁻¹ | 1F11-1A3.315[Trop2]_H1.2_L1 (antibody, V domains shown) VH: QVQLVQSGAEVKKPGASVKVSCKASGYTFTRYYMHWVRQAPGQGLEWMGIIEPGGGSTGYAQKFQGRVTMTRDTSTSTVYMELSSLRSEDTAVYYCARDDVVAADVFDYWGQGTLVTVSS VL: not shown |
| 5.1 nM | 0.0016 s⁻¹ | 310000 M⁻¹ s⁻¹ | 4.1 nM | 0.00091 s⁻¹ | 230000 M⁻¹ s⁻¹ | 1F11-1A3.315[Trop2]_H1.15_L1 (antibody, V domains shown) VH: QVQLVQSGAEVKKPGASVKVSCKASGYTFTRYYMHWVRQAPGQGLEWMGIINPGGGSTGYAQKFQGRVTMTRDTSTSTVYMELSSLRSEDTAVYYCARDDVTKADVFDYWGQGTLVTVSS VL: not shown |
| 1.7 nM | 0.00059 s⁻¹ | 340000 M⁻¹ s⁻¹ | 1.1 nM | 0.00035 s⁻¹ | 320000 M⁻¹ s⁻¹ | 1F11-1A3.315[Trop2]_H1.20_L1 (antibody, V domains shown) VH: QVQLVQSGAEVKKPGASVKVSCKASGYTLTRYYMHWVRQAPGQGLEWMGIIEPGGGSTSYAQKFQGRVTMTRDTSTSTVYMELSSLRSEDTAVYYCARDDVTAADVFDYWGQGTLVTVSS VL: not shown |
| 8.6 nM | 0.002 s⁻¹ | 230000 M⁻¹ s⁻¹ | 6 nM | 0.0012 s⁻¹ | 200000 M⁻¹ s⁻¹ | 1F11-1A3.315[Trop2]_H1.3_L1 (antibody, V domains shown) VH: QVQLVQSGAEVKKPGASVKVSCKASGYTFTRYYMHWVRQAPGQGLEWMGIINPGGGSTTYAQKFQGRVTMTRDTSTSTVYMELSSLRSEDTAVYYCARDDVVAADVFDYWGQGTLVTVSS VL: not shown |
| 1.4 nM | 0.00046 s⁻¹ | 320000 M⁻¹ s⁻¹ | 1.7 nM | 0.0004 s⁻¹ | 240000 M⁻¹ s⁻¹ | 1F11-1A3.315[Trop2]_H1.9_L1 (antibody, V domains shown) VH: QVQLVQSGAEVKKPGASVKVSCKASGYTLTRYYMHWVRQAPGQGLEWMGIINPGGGSTGYAQKFQGRVTMTRDTSTSTVYMELSSLRSEDTAVYYCARDDVVKADVFDYWGQGTLVTVSS VL: not shown |
| 0.7 nM | 0.00028 s⁻¹ | 400000 M⁻¹ s⁻¹ | 0.55 nM | 0.00021 s⁻¹ | 380000 M⁻¹ s⁻¹ | 1F11-1A3.315[Trop2]_H1.22_L1 (antibody, V domains shown) VH: QVQLVQSGAEVKKPGASVKVSCKASGYTLTRYYMHWVRQAPGQGLEWMGIIEPGGGSTSYAQKFQGRVTMTRDTSTSTVYMELSSLRSEDTAVYYCARDDVTKADVFDYWGQGTLVTVSS VL: not shown |
| 0.81 nM | 0.00028 s⁻¹ | 350000 M⁻¹ s⁻¹ | 0.62 nM | 0.00017 s⁻¹ | 270000 M⁻¹ s⁻¹ | 1F11-1A3.315[Trop2]_H1.17_L1 (antibody, V domains shown) VH: QVQLVQSGAEVKKPGASVKVSCKASGYTLTRYYMHWVRQAPGQGLEWMGIIEPGGGSTGYAQKFQGRVTMTRDTSTSTVYMELSSLRSEDTAVYYCARDDVVKADVFDYWGQGTLVTVSS VL: not shown |
| 2.6 nM | 0.00079 s⁻¹ | 300000 M⁻¹ s⁻¹ | 1.5 nM | 0.00051 s⁻¹ | 340000 M⁻¹ s⁻¹ | 1F11-1A3.315[Trop2]_H1.11_L1 (antibody, V domains shown) VH: QVQLVQSGAEVKKPGASVKVSCKASGYTFTRYYMHWVRQAPGQGLEWMGIIEPGGGSTGYAQKFQGRVTMTRDTSTSTVYMELSSLRSEDTAVYYCARDDVTAADVFDYWGQGTLVTVSS VL: not shown |
| 9.4 nM | 0.0021 s⁻¹ | 220000 M⁻¹ s⁻¹ | 6.7 nM | 0.0011 s⁻¹ | 180000 M⁻¹ s⁻¹ | 1F11-1A3.315[Trop2]_H1.4_L1 (antibody, V domains shown) VH: QVQLVQSGAEVKKPGASVKVSCKASGYTFTRYYMHWVRQAPGQGLEWMGIINPGGGSTGYAQKFQGRVTMTRDTSTSTVYMELSSLRSEDTAVYYCARDDVTAADVFDYWGQGTLVTVSS VL: not shown |
